The supplement of paper PMC7877785
± gives the uncertainty stated by the source.

Test: self-splicing fitness, log relative to wild type (ln ratio); higher = more splicing; Tetrahymena group I intron in knt gene, E. coli kanamycin selection, DiMSum; sequences stand for … in CUCUCU…GGAGGGAAAAGUUAUCAGGCAUGCACCUGGUAGCUAGUCUUUAAACCAAUAGAUUGCAUCGGUUUAAAAGGCAAGACCGUCAAAUUGCGGGAAAGGGGUCAACAGCCGUUCAGUACCAAGUCUCAGGGGAAACUUUGAGAUGGCCUUGCAAAGGGUAUGGUAAUAAGCUGACGGACAUGGUCCUAACCACGCAGCCAAGUCCUAAGUCAACAGAUCUUCUGUUGAUAUGGAUGCAGUUCACAGACUAAAUGUCGGUCGGGGAAGAUGUAUUCUUCUCAUAAGAUAUAGUCGGACCUCUCCUUAAUGGGAGCUAGCGGAUGAAGUGAUGCAACACUGGAGCCGCUGGGAACUAAUUUGUAUGCGAAAGUAUAUUGAUUAGUUUUGGAGUACUCGUGGUCG
Procedure, shortened: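 Library with all eight P1ex-region intron nucleotides randomised, intron inside the knt kanamycin-resistance gene on pET-22b(+), in E. coli BL21(DE3). Cells grew overnight at 37°C or 30°C on LB agar with or without 25 μg/mL kanamycin (plus 100 μg/mL carbenicillin, 50 μM IPTG, 0.2% rhamnose), in six replicate transformations. Pooled colonies were amplicon-sequenced on Illumina HiSeq 2500. DiMSum fitness is the error-weighted combination of wild-type-normalised replicate fold changes, kanamycin versus none.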

Sequence | self-splicing fitness (ln) (30 °C) | self-splicing fitness (ln) (37 °C)
GCGGAGCAAUAUUACGGCAU | -1.88 ± 0.12 | -0.979 ± 0.13
GCGGAGCAAUAUUACGGCCU | – | 0.0586 ± 0.34
GCGGAGCAAUAUUACGGCGC | -2.22 ± 0.36 | –
GCGGAGCAAUAUUACGGGCU | -2.38 ± 0.36 | –
GCGGAGCAAUAUUACGGUUC | – | -1.69 ± 0.4
GCGGAGCAAUAUUACGUAAU | -1.52 ± 0.15 | -1.73 ± 0.24
GCGGAGCAAUAUUACGUCUG | -3.82 ± 0.42 | -2.44 ± 0.41
GCGGAGCAAUAUUACGUGGC | -2.82 ± 0.18 | -3.01 ± 0.43
GCGGAGCAAUAUUACGUGUA | -3.49 ± 0.37 | -2.58 ± 0.38
GCGGAGCAAUAUUACGUGUU | -2.9 ± 0.31 | -1.47 ± 0.18
GCGGAGCAAUAUUACGUUAC | -1.51 ± 0.22 | -2.36 ± 0.39
GCGGAGCAAUAUUACGUUAG | -2.8 ± 0.23 | -1.99 ± 0.35
GCGGAGCAAUAUUACGUUUU | -3.29 ± 0.21 | -2.02 ± 0.21
GCGUAGCAAUAUUACGACUC | 0.552 ± 0.19 | -0.215 ± 0.26
GCGUAGCAAUAUUACGAGAC | -1.13 ± 0.2 | -2.37 ± 0.39
GCGUAGCAAUAUUACGAGCU | -1.5 ± 0.12 | -1.66 ± 0.23
GCGUAGCAAUAUUACGAUGA | -0.962 ± 0.13 | 0.16 ± 0.14
GCGUAGCAAUAUUACGCAGC | -3.61 ± 0.47 | -2.75 ± 0.38
GCGUAGCAAUAUUACGCCAA | – | -2.7 ± 0.48
GCGUAGCAAUAUUACGCUCA | – | -0.161 ± 0.23

Sequence | self-splicing fitness (ln) (30 °C) | self-splicing fitness (ln) (37 °C)
GCGUAGCAAUAUUACGGAUC | -0.345 ± 0.079 | 0.215 ± 0.088
GCGUAGCAAUAUUACGGCGA | -0.0106 ± 0.13 | 0.378 ± 0.16
GCGUAGCAAUAUUACGGGCU | -3.57 ± 0.32 | -1.62 ± 0.2
GCGUAGCAAUAUUACGUAAG | -3.03 ± 0.23 | -2.66 ± 0.25
GCGUAGCAAUAUUACGUGGC | -3.48 ± 0.23 | -2.75 ± 0.31
GCUAAGCAAUAUUACGAAAA | -1.27 ± 0.15 | -1.6 ± 0.17
GCUAAGCAAUAUUACGAAAC | -1.17 ± 0.14 | -0.452 ± 0.2
GCUAAGCAAUAUUACGAAAG | -0.97 ± 0.14 | -1.09 ± 0.21
GCUAAGCAAUAUUACGAAGA | -0.925 ± 0.087 | -0.138 ± 0.098
GCUAAGCAAUAUUACGAAGG | -1.85 ± 0.11 | -0.743 ± 0.16
GCUAAGCAAUAUUACGACCG | -0.349 ± 0.17 | 0.0102 ± 0.24
GCUAAGCAAUAUUACGAUGU | -1.19 ± 0.072 | -0.496 ± 0.087
GCUAAGCAAUAUUACGCCGA | -2.09 ± 0.33 | -1.28 ± 0.2
GCUAAGCAAUAUUACGGAGA | -3.1 ± 0.21 | -2.49 ± 0.23
GCUAAGCAAUAUUACGGAUA | -2.45 ± 0.24 | -0.375 ± 0.18
GCUAAGCAAUAUUACGGCAC | -1.31 ± 0.19 | -0.55 ± 0.2
GCUAAGCAAUAUUACGGUAC | -1.47 ± 0.1 | -1.65 ± 0.2
GCUAAGCAAUAUUACGGUGG | -3.83 ± 0.23 | -1.82 ± 0.21
GCUAAGCAAUAUUACGUACC | -0.573 ± 0.11 | 0.246 ± 0.17
